Laboratory results as given in patent US20210395361A1 (Alector, published 2021).
Changes are numbered by the printed parent chain.

T1: Histidine-tagged human Siglec-5 (NovoProtein) (human, UniProt O15389 17-434, limits assumed)
T1 construct: Bought soluble protein; also called His-tagged human Siglec-5; not shown: histidine tag
T1 sequence: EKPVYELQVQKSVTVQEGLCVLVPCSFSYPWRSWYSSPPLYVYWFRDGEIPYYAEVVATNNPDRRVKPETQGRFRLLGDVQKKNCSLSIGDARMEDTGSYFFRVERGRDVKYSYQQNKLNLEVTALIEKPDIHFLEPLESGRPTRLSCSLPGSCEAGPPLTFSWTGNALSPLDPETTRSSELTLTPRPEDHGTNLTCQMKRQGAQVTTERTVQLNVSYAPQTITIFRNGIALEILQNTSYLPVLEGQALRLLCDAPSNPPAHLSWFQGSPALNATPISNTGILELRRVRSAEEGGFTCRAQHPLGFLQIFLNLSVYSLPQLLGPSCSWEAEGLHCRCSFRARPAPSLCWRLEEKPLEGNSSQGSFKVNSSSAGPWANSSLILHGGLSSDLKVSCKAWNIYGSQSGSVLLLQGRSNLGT

T2: human Siglec-5 (human, UniProt O15389 17-551)
T2 construct: also called CHO-S5; CHO-S hSiglec-5
T2 sequence: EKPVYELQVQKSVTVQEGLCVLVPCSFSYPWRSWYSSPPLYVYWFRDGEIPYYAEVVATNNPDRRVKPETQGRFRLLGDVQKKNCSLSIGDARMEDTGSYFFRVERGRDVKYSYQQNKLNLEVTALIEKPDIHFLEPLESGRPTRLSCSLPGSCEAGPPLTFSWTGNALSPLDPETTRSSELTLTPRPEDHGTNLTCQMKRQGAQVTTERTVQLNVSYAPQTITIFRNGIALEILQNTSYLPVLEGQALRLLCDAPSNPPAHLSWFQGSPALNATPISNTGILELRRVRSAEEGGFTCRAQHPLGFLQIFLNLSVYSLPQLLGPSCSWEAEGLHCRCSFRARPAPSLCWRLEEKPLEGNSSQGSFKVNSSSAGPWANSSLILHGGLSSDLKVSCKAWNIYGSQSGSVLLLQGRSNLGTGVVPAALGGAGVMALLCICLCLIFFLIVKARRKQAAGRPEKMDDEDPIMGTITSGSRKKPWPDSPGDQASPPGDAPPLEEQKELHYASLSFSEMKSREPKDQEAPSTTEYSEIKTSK

T3: human Siglec-14 (human, UniProt Q08ET2 17-396)
T3 construct: also called CHO-S14; CHO-S hSiglec-14
T3 sequence: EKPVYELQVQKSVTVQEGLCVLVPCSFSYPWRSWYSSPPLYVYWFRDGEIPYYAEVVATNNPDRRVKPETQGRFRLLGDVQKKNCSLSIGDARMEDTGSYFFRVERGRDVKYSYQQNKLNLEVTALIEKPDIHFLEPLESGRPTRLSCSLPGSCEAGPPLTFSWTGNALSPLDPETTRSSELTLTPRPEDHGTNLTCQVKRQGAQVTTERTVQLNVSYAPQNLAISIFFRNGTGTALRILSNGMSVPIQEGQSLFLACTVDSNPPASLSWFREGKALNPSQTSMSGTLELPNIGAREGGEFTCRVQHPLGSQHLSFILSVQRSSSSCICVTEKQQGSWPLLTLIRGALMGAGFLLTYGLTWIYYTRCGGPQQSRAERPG

B1: S5-175 (antibody, V domains shown)
VH: QAYLQQSGAVLARPGASVRMSCKASGYSFTSYYMHWVKQRPGQGLEWIGAIYPGNSDTSYNQKFKGKAKLTAVTSASTAYMEVSSLTNEDSAVYYCTPLVRPRPYGMDYWGQGTSVTVSS
VL: DVVLTQSTSSLSASLGDRVTISCRASQDISNYLNWYQQKPDGTVKLLIYYTSRLHSGVPSRFSGSGSGTDYSLTISNLEQEDIATYFCQQGNTLPWTFGGGTKLEIK
notes: Mouse-derived variable domains; expressed in mammalian cells as full antibody; hIgG1 isotype control
B2: S5-G-10 (antibody, V domains shown)
VH: QAYLQQSGAELVKPGASVKLSCKASGYIFTEYTIHWVKQRSGQGLEWIGWFYPGSGSIKYNEKFKDKATLTADKSSSTVYMELSRLTSEDSAVYFCATHERAAQAAWSAYWGQGTLVTVSA
VL: DVQMNQSPASLSASVGETVTITCRASGNIHNYLAWYQQKQGKSPQLLVYNAKTLTDGVPSRFSGSGSGTQYSLKINTLQPEDFGSYYCQHFWSTPYTFGGGTKLEMK
notes: as for B1
B3: S5-172 (antibody, V domains shown)
VH: QAYLQQSGPELVKPGASVKVSCKASGYSLTDYNMYWVKQSHGKSLEWIGYIDSYNGGTRYNQKFKGKATLTVDKSSSTAFMHLNSLTSEDSAVYYCAREGFGYDDREWFAYWGQGTLVTVSA
VL: DIVLTQTPLSLAVSVGEKVTMNCKSSQSLLYSTNQMTFLAWYQQKPGQSPKLLIYWASTRESGVPDRFTGSGSGTDFTLTISSVKAEDLAIYYCQQFYTYPFTFGSGTKLEIR
notes: as for B1
B4: S5-176 (antibody, V domains shown)
VH: B3 VH with L29F, M34I, I51F, S53P, R59N, K63R, G66D, H82Q, F101Y
VL: DIVMTQSPSSLAASVGEKVTMSCKSSQSLLYSTNQMTYLAWYQQKPGQSPKLLIFWASTRESGVPDRFTGSGSGTDFTLTISSVKAEDLAVYYCHQFYSYPFTFGSGTRWEIK
notes: as for B1
B5: S5-190 (antibody, V domains shown)
VH: B3 VH
VL: DIQMTQTPSSLAVSVGEKVTLSCKSSQSLLYSTNQMNFLAWYQQKPGQSPKLLIYWASTRESGVPDRFAGSGSGTDFTLTISSVKAEDLAVYYCQQFYSYPFTFGSGTELEIK
notes: Mouse-derived variable domains; same VH entry as S5-172; expressed in mammalian cells as full antibody; hIgG1 isotype control
B6: S5-174 (antibody, V domains shown)
VH: QAYLQQSGAELVKPGTSVKLSCKASGYTFTNYWMHWVKQRPGQGLEWVGEIDPSDGYVTYNQNFKGKATLTVDRSSSTAYMQLSSLTSEDSAVYYCAGVYYGNSIYYAMDYWGQGTSVTVSS
VL: DIQMTQTRNFMSTSVGDRVNITCKATQDVGTAVAWYQVKPGQSPKLLIYWTSTRHTGVPDRFTGSGSGTDFTLTIKNVQSEDLADYFCQQYRSYPFTFGSGTKLEIK
notes: as for B1
B7: S5-G-07 (antibody, V domains shown)
VH: QAYLQQSGAELARPGASVKMSCKASGYTFSSYTMYWVKQRPGQGLEWIGYINPSSGYTEYNQKFKDKATLTADKSSSTAYMQLISLTSEDSAVYYCARSDSKGDYWGQGTTLTVSS
VL: DVVMTQSPSSLSASLGERVSLTCRASQDIGNSLNWLQQEPDGTIKRLISATSSLDSGVPKRFSGSRSGSDYSLTISSLESEDFVDYYCLQYASSPLTFGAGTKLELK
notes: Mouse-derived variable domains; expressed in mammalian cells as full antibody; hIgG1 isotype control; also called SG-5-07
B8: S5-G-03-H9 (antibody, V domains shown)
VH: EVQLLQSGGGLVQPGGSLRLSCAASGFTFSTYGMSWVRQAPGKGLELVATINSNGDNTYYADSVKGRFTISRDNSKNTLYLQMNSLRAEDTAVYYCARAWPSITTVFAPYTLDYWGQGTLVTVSS
VL: DIQLTQSPSSLSASVGDRVTMTCRASSSVSSSFLHWYQQKPGKAPKLWIYSTSNLASGVPSRFSGSGSGTDYTLTISSVQPEDFATYYCQQYSGYPLTFGQGTKLEIK
notes: Humanized variant of S5-G-03; also called S5-G03-H3L3

biological target: T1, Histidine-tagged human Siglec-5 …; assay: array SPR, antibody immobilized, His-tagged human Siglec-5 (0-500 nM) in solution; apparent affinity
Experimental: The apparent binding affinities of the anti-Siglec-5 antibodies were measured by array surface plasmon resonance (SPR), according to standard techniques (Abdiche, et al. (2016) MAbs 8:264-277). Briefly, anti-Siglec-5 antibodies were immobilized on a HC 30M chip at four different densities, at antibody concentration of 10 μg/mL, 2.5 μg/mL, 0.63 μg/mL, and 0.16 μg/mL. Varying concentrations (0-500 nM) of Histidine-tagged human Siglec-5 or cynomolgus Siglec-5 (NovoProtein) were then bound to the captured anti-Siglec-5 surface (5 min injection time, 15 min dissociation time) in HBS-EP⁺/1 mg/mL BSA running buffer. Kinetic analysis was performed using Carterra software to extract association and dissociation rate constants (kₐ and kd, respectively) for each antibody. Apparent affinity constants (KD) were calculated from the ratio kd/kₐ. None of the anti-Siglec-5 antibodies bound to cynomolgus Siglec-5 protein.

| Binder | Kd [nM] | koff [s⁻¹] | kon [M⁻¹ s⁻¹] |
| --- | --- | --- | --- |
| B1 | 15 | 0.00045 | 29000 |
| B2 | 79 | 0.00068 | 8600 |
| B3 | 1.5 | 0.00053 | 350000 |
| B4 | 1.1 | 0.00051 | 470000 |
| B5 | 0.85 | 0.00046 | 540000 |
| B6 | 1.7 | 0.00043 | 250000 |
| B7 | ≤ 0.42 | ≤ 1e-05 | 24000 |

biological target: T2, human Siglec-5; assay: FACS titration, CHO-S hSiglec-5 cells, anti-human IgG secondary; y-axis Fold over isotype, x-axis Antibody (nM), log scale
Experimental: (§1) CHO cells were incubated with increasing concentrations of anti-Siglec-5 antibody, as indicated on the x-axis of each plot. The binding of anti-Siglec-5 antibodies to the surface of CHO cells was then measured by FACS. The y-axis provides the binding of each indicated anti-Siglec-5 antibody to the surface of CHO cells relative to hIgG1 isotype control antibodies. S5-174-H2L1 refers to antibody S5-174-H3; S5-174-H3L1 refers to antibody S5-174-H5; S5-174-H3L2 refers to antibody S5-174-H6; S5-174-H4L1 refers to antibody S5-174-H7; S5-174-H4L2 refers to antibody S5-174-H8; S5-G03-H2L1 refers to antibody S5-G-03-H4; S5-G03-H2L2 refers to antibody S5-G-03-H5; S5-G03-H3L1 refers to antibody S5-G-03-H7; S5-G03-H3L2 refers to antibody S5-G-03-H8; and S5-G03-H3L3 refers to antibody S5-G-03-H9.
(§2) Various anti-Siglec-5 antibodies of the present disclosure were evaluated for their ability to bind to CHO cells which were stably transfected with human Siglec-5 (CHO-S5) or human Siglec-14 (CHO-S14). Cells were incubated with various dilutions of anti-Siglec-5 antibodies for 30 minutes on ice in the dark, followed by a 30-minute incubation with a fluorescently conjugated anti-human IgG secondary antibody. Cells were then washed twice in FACS buffer (PBS+2% FBS, 2 mM EDTA), and flow cytometry was performed on a BD FACS Canto. Data were analyzed using FlowJo software (Ashland, Oreg.). In FIG. 9, hIgG1 refers to isotype control antibodies; S5-174-H2L1 refers to antibody S5-174-H3; S5-174-H3L1 refers to antibody S5-174-H5; S5-174-H3L2 refers to antibody S5-174-H6; S5-174-H4L1 refers to antibody S5-174-H7; S5-174-H4L2 refers to antibody S5-174-H8; S5-G03-H2L1 refers to antibody S5-G-03-H4; S5-G03-H2L2 refers to antibody S5-G-03-H5; S5-G03-H3L1 refers to antibody S5-G-03-H7; S5-G03-H3L2 refers to antibody S5-G-03-H8; and S5-G03-H3L3 refers to antibody S5-G-03-H9.

| Binder | binding result |
| --- | --- |
| B8 | binds |

biological target: T3, human Siglec-14; assay: FACS, CHO cells stably transfected with human Siglec-14 (CHO-S14), fluorescent secondary antibody; y-axis Binding (Fold over background); antibody concentration not shown
Experimental: The anti-Siglec-5 antibodies were evaluated for their ability to bind to CHO cells which were stably transfected with human Siglec-5 (CHO-S5) or human Siglec-14 (CHO-S14). The anti-Siglec-5 antibodies were also evaluated for their ability to bind to primary human neutrophils. Cells were incubated with various dilutions of the anti-Siglec-5 antibodies for 30 minutes on ice in the dark, followed by a 30-minute incubation with a fluorescently-conjugated anti-human IgG secondary antibody. Cells were washed twice in FACS buffer (PBS+2% FBS, 2 mM EDTA), and flow cytometry was performed on a BD FACS Canto. Data were analyzed using FlowJo software (Ashland, Oreg.). In the figures, “hIgG1” and “mIgG1” refer to isotype control antibodies, and “S5/14 1A5” refers to a commercially available antibody that binds both Siglec-5 and Siglec-14 (BioLegend, clone 1A5).

| Binder | binding result |
| --- | --- |
| B1 | no binding |
| B2 | no binding |
| B3 | no binding |
| B4 | no binding |
| B5 | no binding |
| B6 | no binding |
| B7 | no binding |

biological target: T3, human Siglec-14; assay: FACS titration, CHO-S hSiglec-14 cells, anti-human IgG secondary; y-axis Fold over isotype, x-axis Antibody (nM), log scale; the same flat line on CHO-S Parental cells
Experimental: as §1, §2

| Binder | binding result |
| --- | --- |
| B8 | no binding (tested: last point between 1 and 10 nM) |
